Reference: PMC8387475, “Combined intermittent fasting and ERK inhibition enhance the anti-tumor effects of chemotherapy via the GSK3β-SIRT7 axis” (Nature Communications, 2021)

Molecular target: T1, His-GSK3β (UniProt P49841 1-420)
T1 construct: GSK3β, recombinant protein of the GST pull-down; The reagents list a bought recombinant human GSK3β protein (active) (Abcam ab60863); also called recombinant His-GSK3β; source: recombinant
Test: pull-down; GST pull-down with recombinant GST-SIRT7 and His-GSK3β
Conditions: both partners purified

T1 sequence (P49841 whole entry): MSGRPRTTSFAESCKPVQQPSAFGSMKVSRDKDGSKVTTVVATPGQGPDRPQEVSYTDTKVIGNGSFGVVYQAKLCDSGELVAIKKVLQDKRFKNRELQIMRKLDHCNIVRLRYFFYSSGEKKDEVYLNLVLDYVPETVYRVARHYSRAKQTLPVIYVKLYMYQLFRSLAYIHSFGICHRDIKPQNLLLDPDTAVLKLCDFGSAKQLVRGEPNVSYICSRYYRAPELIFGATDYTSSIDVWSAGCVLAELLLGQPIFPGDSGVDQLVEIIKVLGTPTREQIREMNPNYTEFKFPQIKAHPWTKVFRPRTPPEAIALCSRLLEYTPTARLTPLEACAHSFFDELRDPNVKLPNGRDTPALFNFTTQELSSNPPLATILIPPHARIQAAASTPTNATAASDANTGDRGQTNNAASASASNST

binding result: binds
B1: GST-SIRT7 (natural protein, human, UniProt Q9NRC8 1-400, looked up)
chain: MAAGGLSRSERKAAERVRRLREEQQRERLRQVSRILRKAAAERSAEEGRLLAESADLVTELQGRSRRREGLKRRQEEVCDDPEELRGKVRELASAVRNAKYLVVYTGAGISTAASIPDYRGPNGVWTLLQKGRSVSAADLSEAEPTLTHMSITRLHEQKLVQHVVSQNCDGLHLRSGLPRTAISELHGNMYIEVCTSCVPNREYVRVFDVTERTALHRHQTGRTCHKCGTQLRDTIVHFGERGTLGQPLNWEAATEAASRADTILCLGSSLKVLKKYPRLWCMTKPPSRRPKLYIVNLQWTPKDDWAALKLHGKCDDVMRLLMAELGLEIPAYSRWQDPIFSLATPLRAGEEGSHSRKSLCRSREEAPPGDRGAPLSSAPILGGWFGRGCTKRTKRKKVT
notes: SIRT7 cloned into pGEX-4T-3; also called GST-SIRT7-WT; recombinant GST-SIRT7; source: E. coli BL21, purified (glutathione agarose)
